Data: patent US20260250737A1, “Engineered Luciferases and Luciferin Substrates” (Monod Bio, Inc., priority 2023, published 2026)
Changes are numbered by the printed parent chain. Numbers in names are those of the source.

Experiments:
[1] = test system: MBIO-301-derived split enzyme; test: Bioluminescence emission of synthetic luciferin substrates with MBIO-301-derived split enzyme (FRB:FKBP, rapamycin); format: biochemical; conditions: 1 nM MBIO-557, 1 nM MBIO-563, 10 μM Substrate, 100 nM Rapamycin
Description: The MBIO-301 enzyme was split into two components: MBIO-557 (Small portion) and MBIO-563 (Large portion). • MBIO-557 has the following sequence: NRVDEVRVYINGSGS (SEQ ID NO:2735) • MBIO-563 has the following sequence:
Bioluminescence emission of synthetic luciferin substrates was measured. The luciferin substrates were incubated with MBIO-301-derived split enzyme. The two-component MBIO-301 split luciferase enzyme was fused to the rapamycin inducible FRB:FKBP system and incubated with its complementary part at a 1:1 ratio. Each of the molecules was incubated with 1×PBS, 0.5% Propylene Glycol, 0.05% Anti-foam, 100 mM Imidazole, 10 mM Ascorbic Acid buffer, 100 nM Rapamycin and emission signal was measured using a Synergy H1 plate reader.
In-well concentrations: 1 nM MBIO-557 (EGFP-FRB-Small portion), 1 nM MBIO-563 (EGFP-FKBP-Large portion), 10 μM Substrate, 100 nM Rapamycin.

LgLux_4039 = target: T1, LgLux_4039; test: cell-based or functional assay
T1 chain: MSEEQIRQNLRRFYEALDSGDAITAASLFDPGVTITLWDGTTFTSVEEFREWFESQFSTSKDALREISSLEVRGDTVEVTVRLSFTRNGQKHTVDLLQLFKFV

[2] = Luciferase activity (brightness) of LuxSit-i variants; format: biochemical
[3] = Stability of LuxSit-i variants (yeast display protease resistance, static light scattering); format: physicochemical; conditions: for Stability improvement: relative to LuxSit-i
Description: In certain aspects, these polypeptides have improved stability at high temperatures as compared to LuxSit-i. For example, these polypeptides are stable at higher temperatures as compared to LuxSit-i. Stability may be measured by enzymatic activity and/or protein misfolding measured over a period of time. In certain embodiments, stability may be measured using static light scattering (SLS).
A single saturation mutagenesis (SSM) was performed to evaluate by yeast display the effect of single mutations in the stability of LuxSit-i (SEQ ID NO:1). The SSM library was transformed into electrocompetent cells of the strain EBY100. Twenty million cells were labeled with anti-myc FITC antibody in order to detect protein expression on the yeast surface by measuring fluorescence emission. Cells were sorted using a Sony SH800 cell sorter and those showing protein expression (FITC signal) were collected and grown. DNA was extracted from the sorted cells using conventional DNA extraction conventional methods. The DNA library was sequenced using Nanopore technology. Single amino acid substitutions that increase protein stability are enriched after sorting.
(§1) Single saturation mutagenesis (SSM) was performed to evaluate (by yeast display) the effect of single mutations in the stability of LuxSit-i-i. The SSM library was transformed into electrocompetent cells of the strain EBY100. Twenty million cells were labeled with an anti-myc FITC antibody to detect protein expression on the yeast surface by measuring the emission of fluorescence by FITC. Yeast were incubated with a mixture of 3.5 uM trypsin and 1.4 uM chymotrypsin (1/729 dilution of the stock solution) at 25° C. for 15 min. Cells were sorted using a Sony SH800 cell sorter and those showing protein expression (FITC signal) after protease incubation were collected and grown. DNA was extracted from the sorted cells using conventional DNA extraction conventional methods. The DNA library was sequenced using Nanopore technology. Single amino acid substitutions that increase protein stability are enriched after sorting.
as §1, with “LuxSit-i.” for “LuxSit-i-i.”, “antibody in order” for “antibody”, “10” for “3.5”, “4” for “1.4”, “(1/243” for “(1/729”
as §1, with “LuxSit-i.” for “LuxSit-i-i.”, “antibody in order” for “antibody”, “15” for “3.5”, “6” for “1.4”, “(1/162” for “(1/729”, “sorting. […]” for “sorting.”

[4] = Luciferase activity (brightness) of LuxSit-i variants; format: biochemical; conditions: relative to LuxSit-i
Description: SSM was performed to evaluate the effect of single mutations on the luciferase activity of LuxSit-i. FIG. 3 graphically presents the mutation frequency at the positions found in the SSM as beneficial for increasing luciferase activity.
FIG. 4A provides data for luciferase activity for MBIO-148, MBIO-158 and Luxsit-i. MBIO-148, MBIO-158, and Luxsit-i were serially diluted starting from a final in-well concentration of 10,000 pM. Each dilution was combined with Diphenylterazine (DTZ) to a final in-well concentration of […]. Points shown are from the initial reading once the plate read was started.
FIG. 4B provides data for luciferase activity for MBIO-148, MBIO-301, MBIO-302, and LuxSit-i. MBIO-148, MBIO-301, MBIO-302, and Luxsit-i were serially diluted starting from a final in-well concentration of 500 pM. Each dilution was combined with DTZ to a final in-well concentration of 10 μM. Points shown are from the initial reading once the plate read was started.

[5] = among variants derived from MBIO-2859, Table 13
[6] = Table 3, combined substitutions

With `O=c1c(Cc2ccccc2)nc2c(-c3ccccc3)[nH]c(-c3ccc(O)cc3)cn1-2` [1c] the “Fold Change with Rapamycin Addition at Initial Read” value (from here on “Fold Change with Rapamycin Addition”) [1] was 116.8.

With `O=c1c(Cc2ccccc2)nc2c(-c3ccc(F)cc3)[nH]c(-c3ccccc3)cn1-2` [2d] the “Fold Change with Rapamycin Addition” value [1] was 46.2.

In the case of `O=c1c(Cc2ccccc2)nc2c(-c3cccnc3)[nH]c(-c3ccccc3)cn1-2` [2p], the “Fold Change with Rapamycin Addition” value [1] is reported as 17.1.

In the case of RVVIVRVYVNPTG [MBIO-5343], the “Baseline Signal (Normalized by expression)” value (LgLux_4039) is reported as 20200 and the “Fold change upon Rap addition” value (LgLux_4039) is reported as 1.8 fold.

In the case of HVVAVRVYVNPTG [MBIO-5344], the “Baseline Signal (Normalized by expression)” value (LgLux_4039) is reported as 23900 and the “Fold change upon Rap addition” value (LgLux_4039) is reported as 2 fold.

B1: MBIO-301: LuxSit-i variant F9N, Q64L, A85F, H87R, H99L, T108D, H113Y, W100F; SEQ ID NO 104 (protein)
chain: MSEEQIRQNLRRFYEALDSGDADTAASLFHPGVTIHLWDGVTFTSREEFREWFERLFSTSKDALREIKSLEVRGDTVEVHVQLHFTRNGQKHTVDLTHLFHFRGNRVDEVRVYINPTG
With B1 the luciferase activity ([2]; among mutants from combinatorial library, Table 10) was “highest”.

B2: MBIO-2466: MBIO-301 variant, H30D H36T H80T H84S H92S H98Q H101R; SEQ ID NO 2703 (protein)
chain: B1 chain with H30D, H36T, H80T, H84S, H92S, H98Q, H101R
In the case of B2, the “luciferase activity, higher than MBIO-301” value ([2]; relative to MBIO-301) is reported as “more than 5 ×”.

B3: MBIO-3073: MBIO-2466 variant (Table 12), SEQ ID NO:2711 (protein)
chain: MSEEQIRQNLRRFYEALDSGDADTAASLFDPGVTITLWDGTTFTSVEEFREWFERLFSTSKDALREIKSLEVRGDTVEVTVQLSFTRNGQKHTVDLLQLFKFVGNRVVDVRVYTNPTG
For B3, the luciferase activity ([2]; among variants derived from MBIO-2466, Table 12) was “highest”.

B4: MBIO-4039: MBIO-2859 variant (Table 13), SEQ ID NO: 2730 (protein)
chain: B3 chain with D23I, R55S, L56Q, K68S, Q82R, D109A, T114V
With B4 the stability [3, 5] was “most stable” and the luciferase activity [2, 5] was “highest”.

B5: MBIO-4039_No Lysine Residues: LuxSit-i variant that lacks lysine residues, SEQ ID NO: 2737 (protein)
chain: MSGMSEEQIRQNLRRFYEALDSGDAITAASLFDPGVTITLWDGTTFTSVEEFREWFESQFSTSRDALREISSLEVRGDTVEVTVRLSFTRNGQRHTVDLLQLFRFVGNRVVAVRVYVNPT
With B5 the “activity of variant that lacks lysine residues” value ([2]; all lysine residues substituted) was “retains activity”.

B6: MBIO-158: LuxSit-i variant W100F (protein)
chain: B1 chain with N9F, L64Q, F85A, R87H, L99H, D108T, Y113H
For B6, the Brightness improvement ([4]; Table 2, single substitutions) was “Slight increase” and the Stability improvement ([3]; Table 2, single substitutions) was “Monomeric”.

B7: MBIO-149: LuxSit-i variant A85F, SEQ ID NO 82 (protein)
chain: B1 chain with N9F, L64Q, R87H, L99H, F100W, D108T, Y113H
For B7, the Brightness improvement ([4]; Table 2, single substitutions) was “Slight increase” and the Stability improvement ([3]; Table 2, single substitutions) was “No change”.

B8: MBIO-150: LuxSit-i variant F9S, SEQ ID NO 73 (protein)
chain: B1 chain with N9S, L64Q, F85A, R87H, L99H, F100W, D108T, Y113H
With B8 the Brightness improvement ([4]; Table 2, single substitutions) was “No change” and the Stability improvement ([3]; Table 2, single substitutions) was “Monomeric”.

B9: MBIO-156: LuxSit-i variant H87L, SEQ ID NO 88 (protein)
chain: B1 chain with N9F, L64Q, F85A, R87L, L99H, F100W, D108T, Y113H
With B9 the Brightness improvement ([4]; Table 2, single substitutions) was “Slight increase” and the Stability improvement ([3]; Table 2, single substitutions) was “No change”.

B10: MBIO-157: LuxSit-i variant Q64W, SEQ ID NO 47 (protein)
chain: B1 chain with N9F, L64W, F85A, R87H, L99H, F100W, D108T, Y113H
With B10 the Brightness improvement ([4]; Table 2, single substitutions) was “Slight increase” and the Stability improvement ([3]; Table 2, single substitutions) was “No change”.

B11: MBIO-151: LuxSit-i variant F9S_A85F_H87L, SEQ ID NO: 7 (protein)
chain: B1 chain with N9S, L64Q, R87L, L99H, F100W, D108T, Y113H
In the case of B11, the Brightness improvement [4, 6] is reported as “No change” and the Stability improvement [3, 6] is reported as “No change”.

B12: MBIO-152: LuxSit-i variant F9S_A85F_H87L_Q64W, SEQ ID NO: 6 (protein)
chain: B1 chain with N9S, L64W, R87L, L99H, F100W, D108T, Y113H
With B12 the Brightness improvement [4, 6] was “Slight increase” and the Stability improvement [3, 6] was “Slight improvement”.

B13: MBIO-154: LuxSit-i variant F9V_A85F_H87L, SEQ ID NO: 5 (protein)
chain: B1 chain with N9V, L64Q, R87L, L99H, F100W, D108T, Y113H
With B13 the Brightness improvement [4, 6] was “Slight increase” and the Stability improvement [3, 6] was “Slight improvement”.

B14: MBIO-155: LuxSit-i variant F9V_A85F_H87L_Q64W, SEQ ID NO: 4 (protein)
chain: B1 chain with N9V, L64W, R87L, L99H, F100W, D108T, Y113H
With B14 the Brightness improvement [4, 6] was “Slight increase” and the Stability improvement [3, 6] was “Slight improvement”.

B15: MBIO-147: LuxSit-i variant W100F_A85F_H87L, SEQ ID NO: 3 (protein)
chain: B1 chain with N9F, L64Q, R87L, L99H, D108T, Y113H
In the case of B15, the Brightness improvement [4, 6] is reported as “Increase” and the Stability improvement [3, 6] is reported as “Monomeric”.

B16: MBIO-148: LuxSit-i variant W100F_A85F_H87L_Q64W, SEQ ID NO: 2600 (SEQ ID NO 2 in Table 4) (protein)
chain: B1 chain with N9F, L64W, R87L, L99H, D108T, Y113H
In the case of B16, the Brightness improvement [4, 6] is reported as “Increase” and the Stability improvement [3, 6] is reported as “Monomeric”.
